Reference: patent US9616120B2, “Monoclonal antibodies directed to CD20” (VET THERAPEUTICS, INC., priority 2010, dated 2017)

B1: VET 133 X VET 257: antibody variant: light chain VET133 (VET132 CD20-1 LC + VET101) with heavy chain VET257 (VET256 CD20-1 HC + VET201) (antibody)
heavy: EIQLQQSGAELVKPGASVKISCKASGYTFTDYYINWVKQRPGQGLEWIGKIGPGSGRTYYNEKFKGKATLTADKSSSTAYIQISSLTSEDSAVYFCAVLSWGQGTTLTVSSASTTAPSVFPLAPSCGSQSGSTVALACLVSGYFPEPVTVSWNSGSLTSGVHTFPSVLQSSGLYSLSSMVTVPSSRWPSETFTCNVAHPASKTKVDKPVPKRENGRVPRPPDCPKCPAPEMLGGPSVFIFPPKPKDTLLIARTPEVTCVVVDLDPEDPEVQISWFVDGKQMQTAKTQPREEQFNGTYRVVSVLPIGHQDWLKGKQFTCKVNNKALPSPIERTISKARGQAHQPSVYVLPPSREELSKNTVSLTCLIKDFFPPDIDVEWQSNGQQEPESKYRTTPPQLDEDGSYFLYSKLSVDKSRWQRGDTFICAVMHEALHNHYTQKSLSHSPGK
light: DVQITQTPLTLSVTFGQPASISCKSSQSLLKSDGRTYLNWLLQRPGQSPKRLLYLVSKLDSGVPDRFTGSGSGTDFTLKISRVEAEDLGVYYCWQGTHFPQTFGGGTKLEIKGQPKASPSVTLFPPSSEELGANKATLVCLISDFYPSGVTVAWKADGSPITQGVETTKPSKQSNNKYAASSYLSLTPDKWKSHSSFSCLVTHEGSTVEKKVAPAECS
B2: VET 135 X VET 260: antibody variant: light chain VET135 (CD20-2 LC + VET101) with heavy chain VET260 (VET259 CD20-2 HC FR4T + VET201) (antibody)
heavy: QVQLQQSRAELVRPGASVTLSCKPSGYTFTDYEVHWVKQTPVHGLEWIGAIDPETGGTADNQKFKGKAILTADKSSSTAYMELRSLTSEDSAVYYCTNFVDVWGTGTTVTVSSASTTAPSVFPLAPSCGSQSGSTVALACLVSGYFPEPVTVSWNSGSLTSGVHTFPSVLQSSGLYSLSSMVTVPSSRWPSETFTCNVAHPASKTKVDKPVPKRENGRVPRPPDCPKCPAPEMLGGPSVFIFPPKPKDTLLIARTPEVTCVVVDLDPEDPEVQISWFVDGKQMQTAKTQPREEQFNGTYRVVSVLPIGHQDWLKGKQFTCKVNNKALPSPIERTISKARGQAHQPSVYVLPPSREELSKNTVSLTCLIKDFFPPDIDVEWQSNGQQEPESKYRTTPPQLDEDGSYFLYSKLSVDKSRWQRGDTFICAVMHEALHNHYTQKSLSHSPGK
light: DVVMSQSPSSLAVSVGEKVTMSCKSSQSLLYSGNQKNYLAWYQQKPGQSPRLLIYWASTRESGVPDRFTGSGSGTDFTLTISSVKAEDLAVFYCQQYYNYPLTFGAGTKLELKGQPKASPSVTLFPPSSEELGANKATLVCLISDFYPSGVTVAWKADGSPITQGVETTKPSKQSNNKYAASSYLSLTPDKWKSHSSFSCLVTHEGSTVEKKVAPAECS

Tested on: lymphoma cells
Assay: MTT proliferation assay on lymphoma cells
Assay type: cell-based
Details: 72 h; for percentage of reduction of cell proliferation, Doxorubicin 6.6 nM: Mab 10 ug/mL plus Doxorubicin 6.6 nM; for percentage of reduction of cell proliferation, Doxorubicin 66 nM: Mab 10 ug/mL plus Doxorubicin 66 nM; for percentage of reduction of cell proliferation, Doxorubicin 0 nM: Mab 10 ug/mL, triplicate
Method: Lymphoma cells are grown in RPMI medium with FBS 10% in 5% carbon dioxide (CO2) at 37° C. Cells are seeded at 5,000 cells/well in 96-well plates in medium with 5% FBS. Cells are treated with the antibody variants or isotype controls (10 μg/ml) and incubated for 72 h at 37° C. in a CO2 incubator. Ten (10) μL, MTT solution is added to each well and incubated at 37° C. for 4 h according to the manufacturer's instruction (Trevigen). Optical density (OD) is then measured at 490 nm and data is presented as percentage of reduction of cell proliferation of triplicate measurements. The data in Table 5 illustrate that the antibody variants have an anti-proliferative effect on lymphoma cells. Furthermore, the antibody variants sensitize the lymphoma cell line to Doxorubicin, a cytotoxic drug commonly used in the treatment of cancer for companion animals.
The antibody variants of the present invention are further tested for their ability to alter proliferation of lymphoma cells. Cell assays are conducted as described in the example above. Data is presented in Table 6 as percentage of reduction of cell proliferation of triplicate measurements.

Molecule | percentage of reduction of cell proliferation, Doxorubicin 6.6 nM [%] | percentage of reduction of cell proliferation, Doxorubicin 66 nM [%] | percentage of reduction of cell proliferation, Doxorubicin 0 nM [%]
B1 | 65.77 | 76.79 | 59.82
B2 | 58.63 | 64.88 | 40.48
